From US20080089892A1

Key:
[1] = target: biotin-labeled soluble FcRn (Fc neonatal receptor); experiment: ELISA, biotin-FcRn captured on Neutravidin plate, single-point IgG, pH 6.0
[2] = target: biotin-labeled soluble FcRn (Fc neonatal receptor); experiment: ELISA, biotin-FcRn captured on Neutravidin plate, single-point IgG, pH 7.0
[3] = target: Human FcγRIIIa(158F) soluble extracellular domain with engineered 6-histidine tag (human) (UniProt P08637); experiment: KinExA, 7.5 nM IgG equilibrated with titrated soluble FcγRIIIa(158F), free IgG captured on receptor beads
[4] = target: human Fc gamma RI receptor (CD64), extracellular portion with C-terminal 6-his tag; experiment: ELISA: plate-coated human FcγRI (CD64) extracellular portion with 6-his tag; IgG titrated; bound IgG detected with anti-human kappa alkaline phosphatase conjugate, A560
Sequence of human Fc gamma RI receptor (CD64), extracellular portion with C-terminal 6-his tag (chain, as listed by the source limits assumed): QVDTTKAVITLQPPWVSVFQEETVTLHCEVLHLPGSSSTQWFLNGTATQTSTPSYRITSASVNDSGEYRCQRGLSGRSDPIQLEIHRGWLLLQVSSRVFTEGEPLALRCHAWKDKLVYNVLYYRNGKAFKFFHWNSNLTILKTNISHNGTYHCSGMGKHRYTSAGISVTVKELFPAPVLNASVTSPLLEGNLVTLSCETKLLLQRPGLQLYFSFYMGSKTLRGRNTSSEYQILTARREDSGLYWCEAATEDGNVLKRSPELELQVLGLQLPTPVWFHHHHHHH

Sequence of UniProt P08637 (P08637 other isoform, or with tags, fused parts or gaps): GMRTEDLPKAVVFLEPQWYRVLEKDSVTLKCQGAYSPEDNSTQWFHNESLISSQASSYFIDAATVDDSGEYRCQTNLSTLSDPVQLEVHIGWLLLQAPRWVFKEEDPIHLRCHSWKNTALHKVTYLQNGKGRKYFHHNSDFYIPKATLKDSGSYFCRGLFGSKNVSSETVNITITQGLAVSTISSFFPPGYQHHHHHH

Substance | FcRn 6.0 (binding relative to parental) (% of parental (parental = 100)) [1] | FcRn 7.0 (binding relative to parental) (% of parental (parental = 100)) [2] | Kd [3] | EC50 (read off the curve) [4]
anti-CD20 IgG Fc variant H268D (antibody) | 87 | 84 | – | –
anti-CD20 IgG Fc variant T256M (antibody) | 72 | 82 | – | –
anti-CD20 IgG Fc variant A330R (antibody) | 77 | 101 | – | –
anti-CD20 IgG combinatorial Fc variant (L256P, I332E) (antibody) | – | – | 0.021 µM | 1 µg/mL
anti-CD20 IgG Fc variant L251F (antibody) | 102 | 100 | – | –
anti-CD20 IgG Fc variant H268E (antibody) | 90 | 81 | – | –
anti-CD20 IgG Fc variant D280A (antibody) | 91 | 84 | – | –
anti-CD20 IgG Fc variant P247I (antibody) | 89 | 74 | – | –
anti-CD20 IgG Fc variant I332E (AME-133: variable region 33 with the I332E Fc variant sequence) (antibody) | 99 | 97 | 0.052 µM | 2 µg/mL
anti-CD20 IgG Fc variant S440Y (antibody) | 106 | 102 | – | –
anti-CD20 IgG Fc variant A330K (antibody) | 104 | 99 | – | –

More lines, now with the values ahead:

FcRn 6.0 (binding relative to parental) (% of parental (parental = 100)) [1] | FcRn 7.0 (binding relative to parental) (% of parental (parental = 100)) [2] | Kd [3] | EC50 (read off the curve) [4] | Substance
100 | 100 | 0.387 µM | – | wild type (parental Fc) anti-CD20 IgG (antibody)
92 | 78 | – | – | anti-CD20 IgG Fc variant P247L (antibody)
79 | 73 | – | – | anti-CD20 IgG Fc variant P247H (antibody)
115 | 109 | – | – | anti-CD20 IgG Fc variant A339T (antibody)
97 | 92 | – | – | anti-CD20 IgG Fc variant I332R (antibody)
122 | 93 | – | – | anti-CD20 IgG Fc variant A378D (antibody)
132 | 121 | – | – | anti-CD20 IgG Fc variant T256P (antibody)
103 | 93 | – | – | anti-CD20 IgG Fc variant D280K (antibody)
109 | 97 | – | – | anti-CD20 IgG Fc variant I332K (antibody)
91 | 102 | – | – | anti-CD20 IgG Fc variant I332D (antibody)
